{"source": "paper PMC2784006", "molecules": {"B1": {"name": "calcium/calmodulin-dependent serine protein kinase (CASK) (natural protein)", "chain": "MADDDVLFEDVYELCEVIGKGPFSVVRRCINRETGQQFAVKIVDVAKFTSSPGLSTEDLKREASICHMLKHPHIVELLETYSSDGMLYMVFEFMDGADLCFEIVKRADAGFVYSEAVASHYMRQILEALRYCHDNNIIHRDVKPHCVLLASKENSAPVKLGGFGVAIQLGESGLVAGGRVGTPHFMAPEVVKREPYGKPVDVWGCGVILFILLSGCLPFYGTKERLFEGIIKGKYKMNPRQWSHISESAKDLVRRMLMLDPAERITVYEALNHPWLKERDRYAYKIHLPETVEQLRKFNARRKLKGAVLAAVSSHKFNSFYGDPPEELPDFSEDPTSSGLLAAERAVSQVLDSLEEIHALTDCSEKDLDFLHSVFQDQHLHTLLDLYDKINTKSSPQIRNPPSDAVQRAKEVLEEISCYPENNDAKELKRILTQPHFMALLQTHDVVAHEVYSDEALRVTPPPTSPYLNGDSPESANGDMDMENVTRVRLVQFQKNTDEPMGITLKMNELNHCIVARIMHGGMIHRQGTLHVGDEIREINGISVANQTVEQLQKMLREMRGSITFKIVPSYRTQSSSCERDSPSTSRQSPANGHSSTNNSVSDLPSTTQPKGRQIYVRAQFEYDPAKDDLIPCKEAGIRFRVGDIIQIISKDDHNWWQGKLENSKNGTAGLIPSPELQEWRVACIAMEKTKQEQQASCTWFGKKKKQYKDKYLAKHNAVFDQLDLVTYEEVVKLPAFKRKTLVLLGAHGVGRRHIKNTLITKHPDRFAYPIPHTTRPPKKDEENGKNYYFVSHDQMMQDISNNEYLEYGSHEDAMYGTKLETIRKIHEQGLIAILDVEPQALKVLRTAEFAPFVVFIAAPTITPGLNEDESLQRLQKESDVLQRTYAHYFDLTIINNEIDETIRHLEEAVELVCTAPQWVPVSWVY"}}}
{"target": "HA-tagged Synaptic Cell Adhesion Molecule 1 (HA-SynCAM1), full length (mouse)", "sequence (Q8R5M8 48-456)": "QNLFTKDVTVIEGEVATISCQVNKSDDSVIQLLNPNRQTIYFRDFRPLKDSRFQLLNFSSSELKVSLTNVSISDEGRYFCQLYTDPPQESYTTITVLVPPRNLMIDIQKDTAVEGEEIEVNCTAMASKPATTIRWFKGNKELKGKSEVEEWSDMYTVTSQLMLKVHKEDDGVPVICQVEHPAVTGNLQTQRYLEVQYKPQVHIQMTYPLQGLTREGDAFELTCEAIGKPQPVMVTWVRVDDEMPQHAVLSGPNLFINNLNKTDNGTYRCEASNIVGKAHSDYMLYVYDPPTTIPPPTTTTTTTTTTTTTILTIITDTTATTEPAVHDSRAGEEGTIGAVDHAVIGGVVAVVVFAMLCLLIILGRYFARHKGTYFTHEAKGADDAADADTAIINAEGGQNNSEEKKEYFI", "assay": "Cell Adhesion Molecule / Receptor Recruitment Assay", "units": {"% increase in fluorescence intensity at microspheres relative to background": "%"}}
{"molecule": "GFP-tagged erythrocyte protein band 4.1-like 3 (protein 4.1B), full length (4.1B-GFP) (natural protein)", "% increase in fluorescence intensity at microspheres relative to background": 114}
{"molecule": "Syntenin1-GFP (from UniProt O00560 1-298) (natural protein)", "% increase in fluorescence intensity at microspheres relative to background": 91.8}
{"molecule": "protein 4.1N, GFP tagged (4.1N-GFP) (from UniProt Q9Z2H5 1-879) (natural protein)", "% increase in fluorescence intensity at microspheres relative to background": 100}
{"molecule": "B1", "% increase in fluorescence intensity at microspheres relative to background": 123}
